According to patent US6896881:

Key:
[1] = target: human EGF receptor on CHO-hEGFr cells (human) (UniProt P00533); experiment: flow cytometry on CHO-hEGFr cells; 3.9 is the secondary antibody alone
[2] = target: human IGF1 receptor on 3T3-hIGF1r cells (human) (UniProt P08069); experiment: flow cytometry on 3T3-hIGF1r cells; 5.7 is the secondary antibody alone
Chain of UniProt P08069 (P08069 31-1367): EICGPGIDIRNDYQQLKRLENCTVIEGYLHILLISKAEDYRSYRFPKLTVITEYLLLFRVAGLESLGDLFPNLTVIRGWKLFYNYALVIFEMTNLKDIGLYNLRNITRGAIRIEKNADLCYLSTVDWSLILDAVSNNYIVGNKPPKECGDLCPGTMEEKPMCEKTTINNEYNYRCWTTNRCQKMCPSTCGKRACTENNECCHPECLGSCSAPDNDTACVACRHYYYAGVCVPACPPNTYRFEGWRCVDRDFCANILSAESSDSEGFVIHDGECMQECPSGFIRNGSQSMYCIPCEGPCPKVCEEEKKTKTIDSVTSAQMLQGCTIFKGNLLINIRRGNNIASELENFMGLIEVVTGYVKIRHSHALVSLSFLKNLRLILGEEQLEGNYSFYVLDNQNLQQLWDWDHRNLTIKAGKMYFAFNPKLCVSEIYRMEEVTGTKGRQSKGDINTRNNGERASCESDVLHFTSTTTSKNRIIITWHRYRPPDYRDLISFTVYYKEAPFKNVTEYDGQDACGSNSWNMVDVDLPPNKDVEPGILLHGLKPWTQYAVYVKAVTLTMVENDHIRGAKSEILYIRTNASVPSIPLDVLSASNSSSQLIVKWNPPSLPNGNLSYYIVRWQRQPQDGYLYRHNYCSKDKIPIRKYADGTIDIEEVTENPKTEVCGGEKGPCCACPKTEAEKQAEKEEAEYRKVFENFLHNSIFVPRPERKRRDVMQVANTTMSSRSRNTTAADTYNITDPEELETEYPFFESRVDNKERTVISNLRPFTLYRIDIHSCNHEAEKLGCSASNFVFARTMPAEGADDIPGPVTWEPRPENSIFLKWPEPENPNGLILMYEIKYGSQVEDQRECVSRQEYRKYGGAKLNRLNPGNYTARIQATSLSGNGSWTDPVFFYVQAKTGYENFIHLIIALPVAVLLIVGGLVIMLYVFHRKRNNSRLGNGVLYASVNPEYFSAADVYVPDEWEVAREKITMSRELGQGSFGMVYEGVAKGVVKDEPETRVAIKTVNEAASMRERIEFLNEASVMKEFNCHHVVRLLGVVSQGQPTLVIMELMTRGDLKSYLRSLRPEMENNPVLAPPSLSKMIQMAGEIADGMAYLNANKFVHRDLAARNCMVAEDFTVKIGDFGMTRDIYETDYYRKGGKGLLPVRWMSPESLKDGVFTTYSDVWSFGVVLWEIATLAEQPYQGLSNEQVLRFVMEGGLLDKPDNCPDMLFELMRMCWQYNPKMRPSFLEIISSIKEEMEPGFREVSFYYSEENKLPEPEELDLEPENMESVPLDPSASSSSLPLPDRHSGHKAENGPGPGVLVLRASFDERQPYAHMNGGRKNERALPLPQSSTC

Substance | mean fluorescence [1] | mean fluorescence [2]
monoclonal anti-hEGFr antibody clone 528 (Santa Cruz, sc-120) | 466 | 
monoclonal anti-hIGF1r antibody clone 33255.111 (R&D Systems, MAB391) |  | 251
